B1: 8H5 single chain antibody (scFv, V domains shown)
VH: QVQLQQSGAELMKPGASVKISCKATGYTFSNYWIEWIKQRPGHGLEWIGEILPGSDRTNYNGKFKGKATFTADTSSNTAHMQLSSLTSEDSAVYYCANRYDGYYFGLDYWGQGTSVAVSS
VL: EIVLTQSPAIMSASLGEKVTMSCRASSSVNFVYWYQQRSDASPKLLIYYSSNLAPGVPPRFSGSGSGNSYSLTISGLEGEDAATYYCQHFTSSPYTFGGGTNLEIKR
B2: 4D1 single chain antibody (scFv)
scFv: QVQLQQPGAELVKPGASVNLSCKASGYTFTSYWMHWVKQRPGQGLEWIGEIDPSDSFTTYNQNFKDRATLTVDKSSSTAYMQLRSLTSEDSAVYYCARGGPGDFRYAMDYWGQGTSVTVSSGGGGSDILMTQSPSSMSVSLGDTVSITCHASQGISSNIGWLQQKPGKSFKGLIYHGTNLEDGVPSRFSGSGSGADYSLTISSLESEDFADYYCVQYVQFPYTFGGGTKLEIKRA
B3: 10F7 single chain antibody (scFv)
scFv: QVQLQQPGAELVKPGASVKLSCKASGYTFTSYWMHWVKQRPGQGLEWIGEIDPSDSYTNYNQKFKGKATLTVDKSSSTAYMQLSSLTSEDSAVYYCARGGTGDFHYAMDYWGQGTSVTVSSGGGGSDILMTQSPSSMSVSLGDTVSITCHASQGISSNIGWLQQKPGKSFKGLIYHGTNLEDGVPSRFSGSGSGADYSLTISSLESEDFADYYCVQYVQFPYTFGGGTKLEIKR

Assays:
[1] = molecular target: B/Shanghai/2002 (Influenza B virus B/Shanghai/2002); test: lateral-flow sandwich, B line: M2110171 striped + 2/3-Eu
[2] = molecular target: Bar-headed GS/QH/15/2005 (H5N1) (Influenza A virus Bar-headed GS/QH/15/2005 (H5N1)); test: as above
[3] = molecular target: DK/VNM/568/2005 (H5N1) (Influenza A virus DK/VNM/568/2005 (H5N1)); test: as above
[4] = molecular target: A/Taiwan/1/86 (H1N1) (Influenza A virus A/Taiwan/1/86 (H1N1)); test: as above
[5] = molecular target: A/Beijing/95(H1N1) (Influenza A virus A/Beijing/95 (H1N1)); test: as above
[6] = molecular target: B/Shanghai/2002 (Influenza B virus B/Shanghai/2002); test: lateral-flow sandwich, A line: 7304 striped + M4090913-Eu
[7] = molecular target: Bar-headed GS/QH/15/2005 (H5N1) (Influenza A virus Bar-headed GS/QH/15/2005 (H5N1)); test: as above
[8] = molecular target: DK/VNM/568/2005 (H5N1) (Influenza A virus DK/VNM/568/2005 (H5N1)); test: as above
[9] = molecular target: A/Taiwan/1/86 (H1N1) (Influenza A virus A/Taiwan/1/86 (H1N1)); test: as above
[10] = molecular target: A/Beijing/95(H1N1) (Influenza A virus A/Beijing/95 (H1N1)); test: as above
H5N1 virus strain A6 = test: cell-based or functional assay
H5N1 virus strain C3 = test: cell-based or functional assay
H5N1 virus strain F2 = test: cell-based or functional assay
H5N1 virus strain B8 = test: cell-based or functional assay
H5N1 virus strain B2 = test: cell-based or functional assay
H5N1 virus strain A2 = test: cell-based or functional assay
H5N1 virus strain G1 = test: cell-based or functional assay
H5N1 virus strain B1 = test: cell-based or functional assay
H5N1 virus strain E2 = test: cell-based or functional assay
H5N1 virus strain C2 = test: cell-based or functional assay
H5N1 virus strain D2 = test: cell-based or functional assay
H5N1 virus strain A1 = test: cell-based or functional assay
H5N1 virus strain E1 = test: cell-based or functional assay
H5N1 virus strain B5 = test: cell-based or functional assay
H5N1 virus strain F3 = test: cell-based or functional assay
H5N1 virus strain D1 = test: cell-based or functional assay
H5N1 virus strain B7 = test: cell-based or functional assay
H5N1 virus strain B4 = test: cell-based or functional assay
H5N1 virus strain H2 = test: cell-based or functional assay
H5N1 virus strain A5 = test: cell-based or functional assay
H5N1 virus strain A8 = test: cell-based or functional assay
H5N1 virus strain B6 = test: cell-based or functional assay
H5N1 virus strain A7 = test: cell-based or functional assay
H5N1 virus strain H1 = test: cell-based or functional assay
H5N1 virus strain A3 = test: cell-based or functional assay
H5N1 virus strain B3 = test: cell-based or functional assay
[11] = molecular target: H5N1 virus CK/IDN/2A/04 (Influenza A virus CK/IDN/2A/04); test: cell-based or functional assay
[12] = molecular target: Bar-headed GS/QH/15/2005 (H5N1) (Influenza A virus Bar-headed GS/QH/15/2005 (H5N1)); test: cell-based or functional assay
[13] = molecular target: H5N1 virus CK/HK/213/03 (Influenza A virus CK/HK/213/03); test: cell-based or functional assay
[14] = molecular target: H5N1 virus DK/IDN/MS/04 (Influenza A virus DK/IDN/MS/04); test: cell-based or functional assay
[15] = molecular target: H5N1 virus CP Heron/HK/18/05 (Influenza A virus CP Heron/HK/18/05); test: cell-based or functional assay
[16] = molecular target: H5N1 virus Oriental Magpie Robin/HK/366/2006 (Influenza A virus Oriental Magpie Robin/HK/366/2006); test: cell-based or functional assay

Row | Molecule | HI titer n (titer = 2^n) (n-th power of 2) (H5N1 virus strain A6) | HI titer n (titer = 2^n) (n-th power of 2) (H5N1 virus strain C3) | HI titer n (titer = 2^n) (n-th power of 2) (H5N1 virus strain F2) | HI titer n (titer = 2^n) (n-th power of 2) (H5N1 virus strain B8) | HI titer n (titer = 2^n) (n-th power of 2) (H5N1 virus strain B2) | HI titer n (titer = 2^n) (n-th power of 2) (H5N1 virus strain A2) | HI titer n (titer = 2^n) (n-th power of 2) (H5N1 virus strain G1) | HI titer n (titer = 2^n) (n-th power of 2) (H5N1 virus strain B1) | HI titer n (titer = 2^n) (n-th power of 2) (H5N1 virus strain E2) | HI titer n (titer = 2^n) (n-th power of 2) (H5N1 virus strain C2) | HI titer n (titer = 2^n) (n-th power of 2) (H5N1 virus strain D2) | HI titer n (titer = 2^n) (n-th power of 2) (H5N1 virus strain A1) | HI titer n (titer = 2^n) (n-th power of 2) (H5N1 virus strain E1) | HI titer n (titer = 2^n) (n-th power of 2) (H5N1 virus strain B5) | HI titer n (titer = 2^n) (n-th power of 2) (H5N1 virus strain F3) | HI titer n (titer = 2^n) (n-th power of 2) (H5N1 virus strain D1) | HI titer n (titer = 2^n) (n-th power of 2) (H5N1 virus strain B7) | HI titer n (titer = 2^n) (n-th power of 2) (H5N1 virus strain B4) | HI titer n (titer = 2^n) (n-th power of 2) (H5N1 virus strain H2) | HI titer n (titer = 2^n) (n-th power of 2) (H5N1 virus strain A5) | further results
1 | Anti-Flu B nucleoprotein M2110171 (Fitzgerald) (antibody) | – | – | – | – | – | – | – | – | – | – | – | – | – | – | – | – | – | – | – | – | Signal/noise of test line [1]: 376; Signal/noise of test line [2]: 0.6; Signal/noise of test line [3]: 1; Signal/noise of test line [4]: 0.4; Signal/noise of test line [5]: 0.5
2 | anti-Flu A Medix 7304 antibody | – | – | – | – | – | – | – | – | – | – | – | – | – | – | – | – | – | – | – | – | Signal/noise of test line [6]: 3.9; Signal/noise of test line [7]: 246; Signal/noise of test line [8]: 607; Signal/noise of test line [9]: 493; Signal/noise of test line [10]: 896
3 | B1 | 3 | 0 | 0 | 3 | 0 | 4.5 | 0 | 4 | 0 | 1 | 2 | 3.5 | 0 | 0 | 0 | 2.5 | 4 | 5 | 0 | 4 | HI titer n (titer = 2^n) (n-th power of 2) (H5N1 virus strain A8): 2.5; HI titer n (titer = 2^n) (n-th power of 2) (H5N1 virus strain B6): 3.5; HI titer n (titer = 2^n) (n-th power of 2) (H5N1 virus strain A7): 3; HI titer n (titer = 2^n) (n-th power of 2) (H5N1 virus strain H1): 0; HI titer n (titer = 2^n) (n-th power of 2) (H5N1 virus strain A3): 3.5; HI titer n (titer = 2^n) (n-th power of 2) (H5N1 virus strain B3): 5
4 | B2 | 7 | > 8 | 5 | > 8 | 0 | > 8 | 3.5 | > 8 | 1 | > 8 | 7.5 | > 8 | 1 | 0 | 3 | > 8 | > 8 | > 8 | 4 | > 8 | HI titer n (titer = 2^n) (n-th power of 2) (H5N1 virus strain A8): > 8; HI titer n (titer = 2^n) (n-th power of 2) (H5N1 virus strain B6): > 8; HI titer n (titer = 2^n) (n-th power of 2) (H5N1 virus strain A7): 6; HI titer n (titer = 2^n) (n-th power of 2) (H5N1 virus strain H1): 6; HI titer n (titer = 2^n) (n-th power of 2) (H5N1 virus strain A3): > 8; HI titer n (titer = 2^n) (n-th power of 2) (H5N1 virus strain B3): > 8
5 | B3 | 7.5 | 1 | 0 | 7 | 0 | > 8 | 0 | 7 | 0 | 2 | 2.5 | > 8 | 0 | 0 | 0 | 2.5 | 7 | > 8 | 0 | > 8 | neutralization: dilution of 10F7 scFv (fold dilution) [11]: 32; neutralization: dilution of 10F7 scFv (fold dilution) [12]: 16; neutralization: dilution of 10F7 scFv (fold dilution) [13]: < 1; neutralization: dilution of 10F7 scFv (fold dilution) [14]: 16; HI titer n (titer = 2^n) (n-th power of 2) (H5N1 virus strain A8): 6; HI titer n (titer = 2^n) (n-th power of 2) (H5N1 virus strain B6): 7; HI titer n (titer = 2^n) (n-th power of 2) (H5N1 virus strain A7): 6.5; neutralization: dilution of 10F7 scFv (fold dilution) [15]: 8; HI titer n (titer = 2^n) (n-th power of 2) (H5N1 virus strain H1): < 1; HI titer n (titer = 2^n) (n-th power of 2) (H5N1 virus strain A3): > 8; neutralization: dilution of 10F7 scFv (fold dilution) [16]: < 1; HI titer n (titer = 2^n) (n-th power of 2) (H5N1 virus strain B3): > 8

From patent US20080199851A1
